The text below walks through data of patent US20230357348A1 (AstraZeneca / MedImmune, published 2023).

Assay [1] has as its target human GLP-1 receptor (hGLP-1R) (human, UniProt P43220 24-463). The assay is described as follows: cell-based or functional assay.
Assay [2] has as its target human glucagon receptor (hGCGR) (human, UniProt P47871 26-477). The assay is described as follows: cell-based or functional assay.

Starred links: 1 amine or outer side, 2 acyl side, 3 side chain; linkers in the order of their positions; H or OH if unused. Non-standard residues stand in square brackets, D forms with d. Groups on a side chain read outwards from the residue. No end group written: not given here. *: point of attachment. C20 diacid = O=C(O)CCCCCCCCCCCCCCCCCCC(=O)*; C18 diacid = O=C(O)CCCCCCCCCCCCCCCCC(=O)*; γGlu = O=C(O)[C@H](CCC(=O)[*:2])N[*:1]; αMeF = C[C@](N)(Cc1ccccc1)C(=O)O; AEEA = NCCOCCOCC(=O)O; Aib = CC(C)(N)C(=O)O

Chain of human glucagon receptor (hGCGR) (P47871 26-477): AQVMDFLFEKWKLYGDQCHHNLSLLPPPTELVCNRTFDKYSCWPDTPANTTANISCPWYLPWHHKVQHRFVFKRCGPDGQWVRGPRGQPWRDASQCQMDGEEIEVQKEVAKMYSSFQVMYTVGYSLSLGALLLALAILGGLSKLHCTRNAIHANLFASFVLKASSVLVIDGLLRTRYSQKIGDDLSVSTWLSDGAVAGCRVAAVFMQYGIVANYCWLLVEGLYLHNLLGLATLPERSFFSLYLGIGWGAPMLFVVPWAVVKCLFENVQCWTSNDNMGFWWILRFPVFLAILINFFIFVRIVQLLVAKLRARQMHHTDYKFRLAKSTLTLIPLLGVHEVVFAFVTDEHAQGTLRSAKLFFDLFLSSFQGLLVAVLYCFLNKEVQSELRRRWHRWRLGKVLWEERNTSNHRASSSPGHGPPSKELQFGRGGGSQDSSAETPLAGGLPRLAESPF

B1: Peptide 504 (peptide)
peptide: H[Aib]QGTFTSDVSK[αMeF]LESK([AEEA-AEEA-γGlu-C20 diacid])RAQDFVRWLLE[Aib]K-OH
modifications: N-terminus assumed
SMILES: CC(C)C[C@H](NC(=O)[C@H](Cc1c[nH]c2ccccc12)NC(=O)[C@H](CCCNC(=N)N)NC(=O)[C@@H](NC(=O)[C@H](Cc1ccccc1)NC(=O)[C@H](CC(=O)O)NC(=O)[C@H](CCC(N)=O)NC(=O)[C@H](C)NC(=O)[C@H](CCCNC(=N)N)NC(=O)[C@H](CCCCNC(=O)COCCOCCNC(=O)COCCOCCNC(=O)CC[C@H](NC(=O)CCCCCCCCCCCCCCCCCCC(=O)O)C(=O)O)NC(=O)[C@H](CO)NC(=O)[C@H](CCC(=O)O)NC(=O)[C@H](CC(C)C)NC(=O)[C@](C)(Cc1ccccc1)NC(=O)[C@H](CCCCN)NC(=O)[C@H](CO)NC(=O)[C@@H](NC(=O)[C@H](CC(=O)O)NC(=O)[C@H](CO)NC(=O)[C@@H](NC(=O)[C@H](Cc1ccccc1)NC(=O)[C@@H](NC(=O)CNC(=O)[C@H](CCC(N)=O)NC(=O)C(C)(C)NC(=O)[C@@H](N)Cc1c[nH]cn1)[C@@H](C)O)[C@@H](C)O)C(C)C)C(C)C)C(=O)N[C@@H](CC(C)C)C(=O)N[C@@H](CCC(=O)O)C(=O)NC(C)(C)C(=O)N[C@@H](CCCCN)C(=O)O
On to B1, for which, in assay [1], the “hGLP-1R EC50 (pM)” value turned out to be 124 pM. Further, in assay [2], the “hGluc-R EC50 (pM)” value came to 551 pM.

B2: Peptide 506 (peptide)
peptide: H[Aib]QGTFTSDVSK[αMeF]LDTK([AEEA-AEEA-γGlu-C20 diacid])RARDFVAWLLE[Aib]G-OH
modifications: N-terminus assumed
SMILES: CC(C)C[C@H](NC(=O)[C@H](Cc1c[nH]c2ccccc12)NC(=O)[C@H](C)NC(=O)[C@@H](NC(=O)[C@H](Cc1ccccc1)NC(=O)[C@H](CC(=O)O)NC(=O)[C@H](CCCNC(=N)N)NC(=O)[C@H](C)NC(=O)[C@H](CCCNC(=N)N)NC(=O)[C@H](CCCCNC(=O)COCCOCCNC(=O)COCCOCCNC(=O)CC[C@H](NC(=O)CCCCCCCCCCCCCCCCCCC(=O)O)C(=O)O)NC(=O)[C@@H](NC(=O)[C@H](CC(=O)O)NC(=O)[C@H](CC(C)C)NC(=O)[C@](C)(Cc1ccccc1)NC(=O)[C@H](CCCCN)NC(=O)[C@H](CO)NC(=O)[C@@H](NC(=O)[C@H](CC(=O)O)NC(=O)[C@H](CO)NC(=O)[C@@H](NC(=O)[C@H](Cc1ccccc1)NC(=O)[C@@H](NC(=O)CNC(=O)[C@H](CCC(N)=O)NC(=O)C(C)(C)NC(=O)[C@@H](N)Cc1c[nH]cn1)[C@@H](C)O)[C@@H](C)O)C(C)C)[C@@H](C)O)C(C)C)C(=O)N[C@@H](CC(C)C)C(=O)N[C@@H](CCC(=O)O)C(=O)NC(C)(C)C(=O)NCC(=O)O
Regarding B2, in assay [1], the “hGLP-1R EC50 (pM)” value turned out to be 162 pM. Moreover, the “hGluc-R EC50 (pM)” value in assay [2] is 149 pM.

B3: Peptide 508 (peptide)
peptide: H[Aib]QGTFTSDVSK[αMeF]LESK([AEEA-AEEA-γGlu-C20 diacid])RAQDFVRWLVE[Aib]G-NH2
modifications: N-terminus assumed
SMILES: CC(C)C[C@H](NC(=O)[C@H](Cc1c[nH]c2ccccc12)NC(=O)[C@H](CCCNC(=N)N)NC(=O)[C@@H](NC(=O)[C@H](Cc1ccccc1)NC(=O)[C@H](CC(=O)O)NC(=O)[C@H](CCC(N)=O)NC(=O)[C@H](C)NC(=O)[C@H](CCCNC(=N)N)NC(=O)[C@H](CCCCNC(=O)COCCOCCNC(=O)COCCOCCNC(=O)CC[C@H](NC(=O)CCCCCCCCCCCCCCCCCCC(=O)O)C(=O)O)NC(=O)[C@H](CO)NC(=O)[C@H](CCC(=O)O)NC(=O)[C@H](CC(C)C)NC(=O)[C@](C)(Cc1ccccc1)NC(=O)[C@H](CCCCN)NC(=O)[C@H](CO)NC(=O)[C@@H](NC(=O)[C@H](CC(=O)O)NC(=O)[C@H](CO)NC(=O)[C@@H](NC(=O)[C@H](Cc1ccccc1)NC(=O)[C@@H](NC(=O)CNC(=O)[C@H](CCC(N)=O)NC(=O)C(C)(C)NC(=O)[C@@H](N)Cc1c[nH]cn1)[C@@H](C)O)[C@@H](C)O)C(C)C)C(C)C)C(=O)N[C@H](C(=O)N[C@@H](CCC(=O)O)C(=O)NC(C)(C)C(=O)NCC(N)=O)C(C)C
Consider B3, for which the “hGLP-1R EC50 (pM)” value in assay [1] came to 67.9 pM. For the same molecule, in assay [2], the “hGluc-R EC50 (pM)” value came to 2800 pM.

B4: Peptide 511 (peptide)
peptide: H[Aib]QGTFTSDVSK[αMeF]LDTK([AEEA-AEEA-γGlu-C20 diacid])RARDFVRWLL[Aib]E-NH2
modifications: N-terminus assumed
SMILES: CC(C)C[C@H](NC(=O)[C@H](Cc1c[nH]c2ccccc12)NC(=O)[C@H](CCCNC(=N)N)NC(=O)[C@@H](NC(=O)[C@H](Cc1ccccc1)NC(=O)[C@H](CC(=O)O)NC(=O)[C@H](CCCNC(=N)N)NC(=O)[C@H](C)NC(=O)[C@H](CCCNC(=N)N)NC(=O)[C@H](CCCCNC(=O)COCCOCCNC(=O)COCCOCCNC(=O)CC[C@H](NC(=O)CCCCCCCCCCCCCCCCCCC(=O)O)C(=O)O)NC(=O)[C@@H](NC(=O)[C@H](CC(=O)O)NC(=O)[C@H](CC(C)C)NC(=O)[C@](C)(Cc1ccccc1)NC(=O)[C@H](CCCCN)NC(=O)[C@H](CO)NC(=O)[C@@H](NC(=O)[C@H](CC(=O)O)NC(=O)[C@H](CO)NC(=O)[C@@H](NC(=O)[C@H](Cc1ccccc1)NC(=O)[C@@H](NC(=O)CNC(=O)[C@H](CCC(N)=O)NC(=O)C(C)(C)NC(=O)[C@@H](N)Cc1c[nH]cn1)[C@@H](C)O)[C@@H](C)O)C(C)C)[C@@H](C)O)C(C)C)C(=O)N[C@@H](CC(C)C)C(=O)NC(C)(C)C(=O)N[C@@H](CCC(=O)O)C(N)=O
B4: the “hGLP-1R EC50 (pM)” value in assay [1] was determined as 118 pM. The “hGluc-R EC50 (pM)” value in assay [2] came to 140 pM.

B5: Peptide 505 (peptide)
peptide: H[Aib]QGTFTSDVSK[αMeF]LDTK([AEEA-AEEA-γGlu-C20 diacid])RAQDFVQWLLE[Aib]K-NH2
modifications: N-terminus assumed
SMILES: CC(C)C[C@H](NC(=O)[C@H](Cc1c[nH]c2ccccc12)NC(=O)[C@H](CCC(N)=O)NC(=O)[C@@H](NC(=O)[C@H](Cc1ccccc1)NC(=O)[C@H](CC(=O)O)NC(=O)[C@H](CCC(N)=O)NC(=O)[C@H](C)NC(=O)[C@H](CCCNC(=N)N)NC(=O)[C@H](CCCCNC(=O)COCCOCCNC(=O)COCCOCCNC(=O)CC[C@H](NC(=O)CCCCCCCCCCCCCCCCCCC(=O)O)C(=O)O)NC(=O)[C@@H](NC(=O)[C@H](CC(=O)O)NC(=O)[C@H](CC(C)C)NC(=O)[C@](C)(Cc1ccccc1)NC(=O)[C@H](CCCCN)NC(=O)[C@H](CO)NC(=O)[C@@H](NC(=O)[C@H](CC(=O)O)NC(=O)[C@H](CO)NC(=O)[C@@H](NC(=O)[C@H](Cc1ccccc1)NC(=O)[C@@H](NC(=O)CNC(=O)[C@H](CCC(N)=O)NC(=O)C(C)(C)NC(=O)[C@@H](N)Cc1c[nH]cn1)[C@@H](C)O)[C@@H](C)O)C(C)C)[C@@H](C)O)C(C)C)C(=O)N[C@@H](CC(C)C)C(=O)N[C@@H](CCC(=O)O)C(=O)NC(C)(C)C(=O)N[C@@H](CCCCN)C(N)=O
For the molecule B5, the “hGLP-1R EC50 (pM)” value in assay [1] is 42.1 pM. In addition, the “hGluc-R EC50 (pM)” value in assay [2] is 191 pM.

B6: Peptide 512 (peptide)
peptide: H[Aib]QGT[αMeF]TSDVSK[αMeF]LDTK([AEEA-AEEA-γGlu-C18 diacid])RAQD[αMeF]VRWLLA[Aib]G-NH2
modifications: N-terminus assumed
SMILES: CC(C)C[C@H](NC(=O)[C@H](CC(C)C)NC(=O)[C@H](Cc1c[nH]c2ccccc12)NC(=O)[C@H](CCCNC(=N)N)NC(=O)[C@@H](NC(=O)[C@](C)(Cc1ccccc1)NC(=O)[C@H](CC(=O)O)NC(=O)[C@H](CCC(N)=O)NC(=O)[C@H](C)NC(=O)[C@H](CCCNC(=N)N)NC(=O)[C@H](CCCCNC(=O)COCCOCCNC(=O)COCCOCCNC(=O)CC[C@H](NC(=O)CCCCCCCCCCCCCCCCC(=O)O)C(=O)O)NC(=O)[C@@H](NC(=O)[C@H](CC(=O)O)NC(=O)[C@H](CC(C)C)NC(=O)[C@](C)(Cc1ccccc1)NC(=O)[C@H](CCCCN)NC(=O)[C@H](CO)NC(=O)[C@@H](NC(=O)[C@H](CC(=O)O)NC(=O)[C@H](CO)NC(=O)[C@@H](NC(=O)[C@](C)(Cc1ccccc1)NC(=O)[C@@H](NC(=O)CNC(=O)[C@H](CCC(N)=O)NC(=O)C(C)(C)NC(=O)[C@@H](N)Cc1c[nH]cn1)[C@@H](C)O)[C@@H](C)O)C(C)C)[C@@H](C)O)C(C)C)C(=O)N[C@@H](C)C(=O)NC(C)(C)C(=O)NCC(N)=O
For B6, the “hGLP-1R EC50 (pM)” value in assay [1] is 159 pM. Moreover, the “hGluc-R EC50 (pM)” value in assay [2] stood at 2310 pM.

B7: Peptide 510 (peptide)
peptide: H[Aib]QGTFTSDVSK[αMeF]LDTK([AEEA-AEEA-γGlu-C20 diacid])RARDFVRWLL[Aib]E-OH
modifications: N-terminus assumed
SMILES: CC(C)C[C@H](NC(=O)[C@H](Cc1c[nH]c2ccccc12)NC(=O)[C@H](CCCNC(=N)N)NC(=O)[C@@H](NC(=O)[C@H](Cc1ccccc1)NC(=O)[C@H](CC(=O)O)NC(=O)[C@H](CCCNC(=N)N)NC(=O)[C@H](C)NC(=O)[C@H](CCCNC(=N)N)NC(=O)[C@H](CCCCNC(=O)COCCOCCNC(=O)COCCOCCNC(=O)CC[C@H](NC(=O)CCCCCCCCCCCCCCCCCCC(=O)O)C(=O)O)NC(=O)[C@@H](NC(=O)[C@H](CC(=O)O)NC(=O)[C@H](CC(C)C)NC(=O)[C@](C)(Cc1ccccc1)NC(=O)[C@H](CCCCN)NC(=O)[C@H](CO)NC(=O)[C@@H](NC(=O)[C@H](CC(=O)O)NC(=O)[C@H](CO)NC(=O)[C@@H](NC(=O)[C@H](Cc1ccccc1)NC(=O)[C@@H](NC(=O)CNC(=O)[C@H](CCC(N)=O)NC(=O)C(C)(C)NC(=O)[C@@H](N)Cc1c[nH]cn1)[C@@H](C)O)[C@@H](C)O)C(C)C)[C@@H](C)O)C(C)C)C(=O)N[C@@H](CC(C)C)C(=O)NC(C)(C)C(=O)N[C@@H](CCC(=O)O)C(=O)O
As to B7, in assay [1], the “hGLP-1R EC50 (pM)” value was found to be 176 pM. Moreover, the “hGluc-R EC50 (pM)” value in assay [2] worked out at 118 pM.

B8: Peptide 507 (peptide)
peptide: H[Aib]QGTFTSDVSK[αMeF]LDTK([AEEA-AEEA-γGlu-C20 diacid])RARDFVAWLLE[Aib]G-NH2
On to B8, for which the “hGLP-1R EC50 (pM)” value in assay [1] was found to be 52.9 pM. For the same molecule, in assay [2], the “hGluc-R EC50 (pM)” value is 86.6 pM.
